The record followed here is patent publication US20210363255A1 (TRUEBINDING, published 2021).

Assay [1] concerns the target Purified human PD1 extracellular domain produced in E. coli fused to Fc (Ray Biotech) (human) (UniProt Q15116). The experiment in a line: blocking ELISA; E. coli hPD1 ECD-Fc coated, antibody at 20 ug/ml, competitor ligand biotinylated deglycosylated mPD-1 Fc. Background: ELISA stands for enzyme-linked immunosorbent assay.
The target of assay [2] is T1, hPD-1 peptide No. 12 (TDKLAAFPED) (human).
T1 construct: also called PD1 peptide 12; peptide 12
T1 peptide: TDKLAAFPED
The experiment in a line: ELISA on hPD-1 peptide array.

Chain of Purified human PD1 extracellular domain produced in E. coli fused to Fc (Ray Biotech) (human) (Q15116 25-170): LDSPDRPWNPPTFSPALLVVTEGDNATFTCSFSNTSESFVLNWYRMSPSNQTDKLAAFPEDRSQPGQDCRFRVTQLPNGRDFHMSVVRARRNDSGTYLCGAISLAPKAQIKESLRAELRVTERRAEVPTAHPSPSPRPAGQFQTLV

The molecule mab12 (LS-C131333, LS Bio) (antibody) gave a binding remaining, % of unblocked controls (% of unblocked controls) in assay [1] of 86.

B1: IMT200 (antibody, V domains shown)
VH: QVQLQQSGPELVKPGASVKISCKASGFAFSGSWMNWMKQRPGKGLEWIGRIYPGDGDTNYNGKSKGKATLTADTSSSTAYMQLSSLTSEDSAVYFCTRSTTILADYWGQGTTLTVSS
VL: DIQMTQTTSSLSASLGDRVTISCRASQDIANYLNWYQQKPDGTVKLLIYYTSRKYSGVPSRFSGSGSGTDYSLTISNLDQEDIATYFCQQGKTLPWTFGGGTKLEIK
notes: Monoclonal raised against non-glycosylated His-tagged hPD-1 and detected with anti-mouse IgG-HRP; also called monoclonal antibody IMT200; anti-PD-1 mAb IMT200
On to B1, for which, in assay [2], the binding result is “binds”.
